Data on 1 substance can be found in PMC5709735, “Real‐time detection of condensin‐driven DNA compaction reveals a multistep binding mechanism” (The EMBO Journal, 2017).

This series has as its system T1, Nc1ncnc2c1ncn2[C@@H]1O[C@H](COP(=O)(O)OP(=O)(O)OP(=O)(O)O)[C@@H](O)[C@H]1O.
T1 construct: pentameric holocomplex overexpressed in budding yeast from galactose-inducible promoters; His12 tag on Brn1, triple StrepII tag on Smc4; gel-filtered monomeric complexes; with Condensin complex subunit 2; Condensin complex subunit 1; Condensin complex subunit 3
Description: single-molecule magnetic tweezers, DNA compaction rate vs ATP, Michaelis-Menten fit. The class given is biochemical, Saccharomyces cerevisiae. The following applies: 8.6 nM condensin, tethered 20-kb DNA under constant force, 10 mM HEPES-NaOH pH 7.9, 125 mM NaCl, 5 mM MgCl2, 1 mM DTT, error is 95% confidence interval, read-out is compaction rate, not ATP turnover.

For the substance “S. cerevisiae condensin holocomplex (Smc2–Smc4–Brn1–Ycs4–Ycg1) (Saccharomyces cerevisiae S288C)”, the Km came out at 1400 ± 1500 µM.

A word on the Km: it is the concentration of substrate that gives half-maximal velocity.
